Measured values from patent publication US20240026407A1, “MODIFICATION OF SAPONINS” (GLAXOSMITHKLINE BIOLOGICALS SA, priority 2020, published 2024).

B1: 875 (protein, listed as Exophiala spinifera)
chain: MGSYSGSQQGFESIISGLTVEEKATLLSGADFWTTSPVTRVGIPALKVSDGPNGARGGHFQGKTTSACFPASVSLAASFDREFAYKIGRALGQETKTKGAHVLLGPTVCHHRDPRGGRNFESFSEDPLLAGELASEWIAGLQSEGVGATVKHYAVNEQETRRFTIDARVDQRALREIYLKPFEIAVKRADPWAIMTSYNLVNGKHADEHKELITDILRGQWGFKGLVMSDWGGTNSVAPSLNAGHDLEMPGPPLKRTVDNIQRALQTGELTEDTLNQRVGNVLKLLQRAGKFENPEIAEEQAVDLPEHRSLIRQAAAESMVLLKNTNNILPLKSTNTKSIALLGLAREYLGHGGGSASVNSHHKVTAYEALQAAVGSSVQLNYAEGARIVRNLSPLSENVYNEEGVPGFTMKTFSKLNGDNPTVSTVPSSVYRTLEPSSIDQMTLLGTFKPKTSGLHYISLSTLGGTRVYINDELVFDYSNSQTTDIMAFLIGSPGEDKKRYLFTAGESYRIRIEAKATKDTISGFSLFTKEAIGFSLGFALESEHDADLLTAAIEAAKSSDVAVVFVGHTPIWESEGADRSGMDLPKDGSLDALVVAAAKVNPNTVVVNSTGSAISMPWIEDVAAVVQAWFPGQEAGHSIADVLLGKVTPSGKLPVTFPRAITDVPSYENFPGDIKNEVVHYKESIYTGYRHFDRRPEGVLFPFGFGLSYTTFDVVVTSVSRTKLRNHETLTVSADVTNTGTTEGAEVVQVYVGAGEGTSAIDRPAKELAGFAKVHLRPGEARKVAITFGRDSVAYWNESRDKWSVDKGAYTIYVGTSSVDIAGKLEVEVPEAFDFDP
B2: 848 (protein)
chain: MTLEEKVSMVAGADAWHSTGVERLGIPAIKVTDGPNGARGGDFGGGVGSACFPVGVCLGSTWNTALIERVGQALGQEVQSKQAHILLAPTVNIHRSPLNGRNFECYSEDPYLTARIAAAYITGVQKQGVGACIKHFVCNDSEFERHSISSEVGERALREIYLPPSETAVREAGVWAVMSAYNKLNGTYCSENPYTLLEILKGEWGFEGIVISDWGGTYSTVEAAANGLDLEMPGPARWMGEKLLQAMRDGQVSGPKKLGEAVDDKVRRLLWTIEKAGAQLGPEPPEQAIDRPEHRALIRQAAGEGIVLLKNDGVLPLDGARVKRIAVIGPNAAEAKIMGGGSAQVKAHYAVSPLDGIRARAGEAVDVQCALGCTNYREIPELKTEWLTPVGGGESGWTVAYYNNLDLAGDPVRAETTDRTRMMWFGQVAPGVDRECFSARLSGTLTVPQSGTYTLSLNSAGVSRIAIDGELVLDNWTDYRPSRGPFDRDRKVPTAEVELTAGQGYTFVVEYSKQQSPRFAMLRVGCLPAQPADLMERAVQAAAKADVALVFIGTSGEWESEGFDRPDMELPGRQVELLEAVAAANPNTVAVLNTGSPVSVRWLDKVAALVEAWFPGQECGNAIADVLFGDVNPSGRLSQTWPVRLQDNPAYINYPGENGRVLYGEGLFVGYRYYEKKQIEPRFPFGHGLSYTTFEYGALRLQSEYTLGEPIAVSVDVTNTGPVAGQEVVQLYVRDEESSLVRPEKELKAFAKLALEPGETQTVTLTLDERALSFYDDAKAGWVAEAGEFTVLVGASSRDIRCTARFTLTVPPDRS
modifications: uncultured microorganism
B3: 864 (protein, listed as Stagonospora sp.)
chain: MPYKVNDESREGEGLNALLGALTLDEKISLLSAKNIWETPEVERVGIPSLKVTDGPNGARGGEFFDGTTAACFPACVSLAATFDRALSRQVGRALGQEAITKGAYVVLGPTVCCHRSPLGGRNFEAFSEDPVLSGALASEYVKGLQEERVAATVKHFLANEQDTRRFSVDQTISERALREIYLKPFEIVAKQADPWCFMSSYPKINGKHVDAQSKFLIDILRKEWGYEGMVMSDWGAASTVEGIKYGLDMEMPGPPRQREANLVRNAVKKGQISEGDIDARVLSTLNLLKKVGKFSDRKDTPKEQAIDRPEHRALIRKAGREGIVLLKNQNNILPIDIKKTQKVALLGPLAKYAAAHGGGSASLNCHYKITPYDAFTERLGKDVEITHSKGAHIFRVYPDLDAGCKNAHGNVGFLAEYFMEGDIEPSSVPFRIEEFPRGSFNTLMNTNVTGCKSVRFTTTYRPPVTGKHYLSFSGLGPSHLSINGVMVAEQKNSTKDAMSFFLGVQEEERVQFDFDAAKTYDLIMETHPSPTNNAELYLMEGQTSIHLGFIAQAEMEQDVLAEAVDLAKDADLAIVFVGNTTQWETEGQDLSSMTLPADGSQDNLIASVVAANPKTIVVNTTGVPVELPWLDDVPAFLQAWYAGQETGNAILDVLLGEMSPSGKLPISWPKKYEHTGCYGNFGLDSFDSRKVEYVEGVFVGYRWFDRQWGHDKEVRFPFGYGLSYTEFSITDTRISGSIANDKNARVTVAANVKNVGSMSGSEILQVYLEPPVEEGIDRPVKGLVGFVKVELQPKEEKTVEVVFARDAAAFWDEAANEWAVSMGLHHIVVATSAAPVDIKARLELHVENAFKFDP
B4: 862 (protein, listed as Bifidobacterium thermacidophilum)
chain: MDATTGTNKAPAPAQARQGNGRGGNEGRNASEIRHRVDDLTLEQKASLTSGADAWHVQGIDECGIPGYMITDGPHGLRKARPAEEQKTGLGDAVPVTCFPPAAGLSSSWDPGLVREVGEAMGEECIQEKVAVILGPAVNIKRNPLGGRCFEYWSEDPFLAGHEAVGIVEGVQSKGVGTSLKHFAANNQETDRLRISATISPRALREIYLPAFEYIVKTAQPWTVMCSYNRINGVHSAQNRWLLTDVLRREWGFQGIVMSDWGADHDRVASLNAGLNLEMPPSGTDDQIVAAVRDGRIAPEQLDSMAQGMIDLVAKAQPAMSRDGYRYDRDRHYDIARRAARESMVLLKNEQGTLPVRPGVRVAVIGEFARTARYQGGGSSHITPDRMSSFLDATARRGEQVDFAPGFTLDLDPADPVLEAQAIETARHADIVLMFMGLPEAAESEGFDRTSLDIPAKQTSLLHKISAVNPHVAVILSNGSVVSVAPWCDDAQAILESWLLGEAGGDALADVVFGDVSPSGKLAQTIPLDINDDPTMLNWPGEEGHVDYGEGVFVGYRYYDTYRKPVAYPFGFGLSYATFDVHDARVRRLGVDDAARVAAERAAGDAAQGNDVARADGAAHVDGACGAVVRVDATVTNTSDAPGAQVVEIYVAPGKSQVARPVHELKGFARVDLAPGESKAVSITLDERAFAYWSQRFDDWHVEAGDYTVEVGTSSRDIVARIPAHLDGDGKTMPLDEWSTFGEWAADPVGARVVEAVGREADQGRLPRLPQNGVMRIFLMAAPVNSLQMILGEEGLEVARFMLDEYRRIRG
B5: 805 (protein)
chain: MLDIEKLIDEMTLEEKAGLCSGDDMWHTKAVERLGIPRIKMSDGPHGMRTFDDNGKVIPAVCFPTGSALAASFDTELVERVGAAIGEAAKTNGVHTVLGPAVNMKRSPLCGRNFEYLSEDPYLAGKLGSAMVRGIQSKGVGACPKHFAVNNQETRRMSVSADLSERTLREVYLPAFETIVKESSPHTMMCAYNRINGTYASENEHLLDEILRKEWGYQGIVMTDWSAMNRRPRALQAGLELEMPSSAGVNDEKIVEAVKAGDLSIEVLDEAVRRLLTWINAELQGRTESVCDLGVQRELAREAAGKSAVLLKNDDVLPLRKGDKIAFIGGFADKPRFEGGGSSHVSVEHMVNAIDAAKDIPNITYTEGFNTDDALSDYELVAEAVRIASEADVAVIFAGLPAAFESEGHDRTTLEIPESQNKLIAAISAVQPKTVVVFHGGSPVYMPWRKDVAAILYMYLGGQEVGSASVDLLFGDRNPSGKLAETFPLKLEDTPCYMNFPGDGNNAEYSEGIYIGYRWYDKRKIAVEYPFGFGMSYSDFIYRQIRSANSRITDTDTLKIYVDVQNRGEYAGEEIVQLYVQPSKARQGVRPVKELKGFKKMMIAPGETKTVCFELDKRSFAEYKPEISGWYAATGEYTILAGGSSDNLPLQVKVYVESTDTIPLVYNDYTTIGDLWDSGLDVNEVLDALDAKQTDLSALGLPADKMDRAIHMEEVKRGMPIHAVISMGGRDMNKIYQALLKVDGLEGKENIPL
modifications: uncultured Clostridium sp.
B6: 854 (protein, listed as Corynespora cassiicola)
chain: MAQESGTVHDDESLQALVGQMTLEEKIKMLSAKNVWETPEIDRLGIPSLKVTDGPNGARGGSFFDGTTAACFPSCVSLAATFNRSLSRQVGKALEQEAITKGAYVLLGPTVCCHRSPLGGRNFEAFSEDPYLSGALASEYVKGLQEERVAATVKHFLANEQDTRRFSVNEKISERALREIYLRPFEMVAKEADPWCFMSSYPKINGAHVDAQSKFLVDILRKEWGYKGLIMSDWGATSTPESVRYGLDLETPGPPRWRTTDAVTKCLADGHIEESDIDARVLATLRLLKKVGKFDDRKTTPPEQAIDRPEHRALIRKAGGEGIVLLKNNGNLLPIDTRKTKKIALLGPLAKYAAAHGGGSASLNCHYKISPYDAFVARLGGDVEITHSKGAHIFRVYPDLEASCTNARGNSGFLAEYFMSSSTTEKPFWTEEFPRGSVTTLMNTKVIGCKTLKFTTTYQPPVSGSHYLSFSGLGPSQLFINDMLVAEQKEPTKDAMGFLLGVQEEVRIQYPFSSTQSYAISMVTHPSPFSNAELYLMENQCAIHIGFIAQEEIEHDVLSEAVDLASSADLAIVFVGNTIQWETEGQDLETMTLPADGSQDNLISQVVAANPNTIVVNTTGVPVELPWVDSVPALLQAWYAGQECGNAILDVLLGEVSPSGKLPISWPKKYEHTGCYGHFGLDSFESREVEYVEGVYVGYRWFDQWWGQDKEVRFPFGFGLSYTEFDISDARISGAISGDESSQVKVSANIRNIGDRFGAETVQIYVQPPALADLGRPLKDLVGFVKVELKPGETRDITVCFQKDNVSFWNEKANQWRVCRGTYNVLIATSSDPKDAKQALRFEVEEDLDFDP

Experiments:
Format in all cases: biochemical, Quillaja saponaria
[1] = Experiment 5-3: screening of additional glucosidases for deglycosylation with QS-18 in treated bark extract (80%) at pH 6 and 35 deg C; details: TBE 80% (QS-21 approx. 4 g/L), pH 6, 35 deg C; UV HPLC
Protocol: Experiment 5-1 was repeated, replacing CBE with Treated Bark Extract (TBE) at pH 6. TBE was prepared from CBE by PVPP treatment and concentration, to provide TBE with a QS-21 concentration of approximately 4 g/L. TBE was adjusted to pH 6 by dropwise addition of 2M NaOH with stirring.

[2] = Experiment 5-1: screening of additional glucosidases for deglycosylation with purified QS-18 (0.04 mg/ml) at pH 7.5 and 30 deg C; details: pH 7.5, 30 degrees C, 18 hours, LCMS/MS
Protocol: The 94 additional genes, together with positive control (DNA encoding SEQ ID No. 262) and negative control, were transformed, expressed, lysed and reacted in the same manner as described above for Experiment 4-1, except the reaction was incubated at 30 degrees C. for 18 hours.
Samples were analysed by LCMS/MS according to the procedure in Experiment 4-1.

[3] = Experiment 5-2: screening of additional glucosidases for deglycosylation with QS-18 in crude bark extract (80%) at pH 6 and 35 deg C; details: CBE 80%, pH 6, 35 deg C, 18 hours; UV HPLC
Outline: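 Deglycosylation of QS-18 was monitored by UV HPLC after MeCN/AcOH quench with hexanophenone. The reaction ran 18 hours at 35 deg C, shaking, combining clarified pH 6 lysate with crude bark extract neutralised to pH 6 by NaOH.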

Row | Molecule | Experiment 5-3 % conv [1] | Experiment 5-1 % conv [2] | Experiment 5-2 % conv [3]
1 | B1 | <0.5% | 4.7% | <0.5%
2 | B2 | <0.5% | 3.8% | <0.5%
3 | B3 | <0.5% | 3.9% | <0.5%
4 | B4 | <0.5% | 4.2% | <0.5%
5 | B5 | <0.5% | 3.8% | <0.5%
6 | B6 | <0.5% | 3.7% | <0.5%
